{"source": "paper doi:10.1101/2021.01.10.425899", "about": "(bioRxiv, 2021)", "proteins": {"B1": {"name": "Exo-β-N-acetylmuramidase NamZ of Bacillus subtilis 168, recombinant, C-terminal His6-tag fusion protein (enzyme)", "chain": "SPDSKNQTAKKPKVQTGIDTLLPDYKKQLKGKRIGLITNPAGVNTSLKSSVDILYENPDIKLTALFGPEHGVRGDAQAGDEVGSYIDEKTGVPVYSLYGKTKKPTPEMLKNVDILMFDIQDVGTRFYTYIYTMAYAMEAAKENGIPFMVLDRPNPQGGNHIEGPILEPEYASFVGLYPIPLKHGMTIGELASLFNKEFSIDADLTVVKMKHWKRKMDFDDTRLPFVLPSPNMPTVESTFVYPATGLIEGTNISEGRGTTKPFELIGAPFIKSTELEETLNSLHLPGVTFRAASFTPTFSKHQGTLCHGVQLYVTDRDKFEAVKTGLSVIKTIHDLYPEDFEFLSTGSFDKLAGNGWIRTKIENGTSVENIINSYEKTLQQFSKTRKKYLIY"}}, "biological_target": "the molecule itself", "assay": "SEC-MALS"}
{"protein": "B1", "values": [{"measurement": "stoichiometry N", "result": 2}]}
